Our source for the inhibition, Km and Vmax values is ChEMBL document CHEMBL3392998.

Active and inactive are the calls of the source. The rule behind the calls is not given here.

The target in series [1] is Protease (Human immunodeficiency virus 1) (UniProt Q9YQ12). Conditions: 1 to 180 uM.
Series [2] concerns Human immunodeficiency virus type 1 protease (Human immunodeficiency virus 1), Q72874 [L10I,L63P,A71V,G73S,I84V,L90M]. As to conditions: 1 to 180 uM.
The test system of series [3] is O=C1c2cccc([N+](=O)[O-])c2C(=O)N1c1ccc2[nH]c(=S)sc2c1. Conditions: Human immunodeficiency virus 1; 100 uM.
Series [4] has the same test system. Conditions: Human immunodeficiency virus 1; 100 uM. This is another data set of the same source.
The test system is the same in series [5]. Conditions: Human immunodeficiency virus 1; 150 uM.
Series [6] has the same test system. Conditions: Human immunodeficiency virus 1; 150 uM. This is another data set of the same source.
For series [7] the test system is unchanged. As to conditions: Human immunodeficiency virus 1; 150 uM. This is another data set of the same source.
The test system is the same in series [8]. As to conditions: Human immunodeficiency virus 1; 100 uM. This is another data set of the same source.
Series [9] shares this test system. As to conditions: Human immunodeficiency virus 1; 150 uM. The source holds these as a separate data set.
The test system is the same in series [10]. As to conditions: Human immunodeficiency virus 1; 100 uM. This is another data set of the same source.

For the compound `O=C1c2cccc([N+](=O)[O-])c2C(=O)N1c1ccc2[nH]c(=S)sc2c1`, the inhibition entry in series [1] and in series [2] was “inactive” in each case.
For “Human immunodeficiency virus type 1 protease (Human immunodeficiency virus 1), Q72874 L10I,L63P,A71V,G73S,I84V,L90M”, the figures for the Km in [3] and in series [5] were 246 µM and 359 µM, respectively. The Vmax in series [4] and in series [6] was 30 nM/s each time.
In the case of “Protease (Human immunodeficiency virus 1), Q9YQ12”, the Km was 184 µM in series [7] and 144 µM in series [10]. The Vmax in series [8] came to 35 nM/s; in [9], 34 nM/s.
